Data published in patent US20210347899A1 (BRIGHAM AND WOMEN S HOSPITAL, published 2021).

T1: full length human KLRG1 (human, UniProt Q96E93 1-195)
T1 sequence (looked up): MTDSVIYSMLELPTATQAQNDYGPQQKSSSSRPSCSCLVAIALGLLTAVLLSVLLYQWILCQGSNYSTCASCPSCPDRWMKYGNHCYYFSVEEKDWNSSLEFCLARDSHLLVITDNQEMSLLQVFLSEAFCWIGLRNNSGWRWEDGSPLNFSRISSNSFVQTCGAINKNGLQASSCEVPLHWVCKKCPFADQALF

T2: cynomolgus KLRG1 ECD (cynomolgus, biotinylated in the OCTET assay, site not stated)
T2 construct: Recombinant proteins were made as FC fusion or as HIS tagged versions; also called cynonolgus KLRG1 ECD
T2 chain: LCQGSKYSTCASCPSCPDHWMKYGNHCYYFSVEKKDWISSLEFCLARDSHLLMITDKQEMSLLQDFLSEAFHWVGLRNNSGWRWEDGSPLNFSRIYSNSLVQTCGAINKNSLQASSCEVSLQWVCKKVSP

T3: full length cynomolgus KLRG1 (cynomolgus, UniProt A0A2K5WAP9 1-186)
T3 construct: whole, on cells; also called Cyno KLRG1; CHO-cynomolgus-KLRG1
T3 sequence: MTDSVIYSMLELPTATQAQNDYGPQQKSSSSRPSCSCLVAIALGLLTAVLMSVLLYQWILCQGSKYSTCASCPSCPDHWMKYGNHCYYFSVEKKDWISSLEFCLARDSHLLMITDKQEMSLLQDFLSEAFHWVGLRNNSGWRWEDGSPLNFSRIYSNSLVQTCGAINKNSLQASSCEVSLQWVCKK

B1: ABC_G1N05 (antibody, V domains shown)
VH: EVLLMESGGDLVKPGGSLKLSCAASGFTFSSYDMSWVRQTPDKRLEWVATISSSGRYTFYPDNVKGRFTISRDNAKNTLYLQVSNLKSEDTAMYYCSRTGVTTVVFTDYFDYWGQGTTLTVSS
VL: DIQMTQSPSSLSASLGERVSLTCRASQDIGNSLNWLQQGPDGTIKRLIYATSSLDSGVPKRFSGSRSGSTYSLTISSLESEDFVAYYCLQYLSSPPTFGGGTKLEIK
notes: Mouse hybridoma monoclonal antibody
B2: ABC_G1N08 (antibody, V domains shown)
VH: QVQLQQSGAELAKPGASVKLSCKASGYTFTSYFLHWVKQRPGQGLEWIGYMNPSSGYTKCNQKFKDKATLTADKSSSTAYMQVSSLTYEDSAVYYCARDRIGYWDFDVWGTGTTVTVSS
VL: DVVMTQSQKFMSTTVGDRVSITCKASQNVGTAVAWYQQKPGQSPKLLIYSASNRYTGVPDRFTGSGSGTDFTLTITNMQSEDLADYFCQQYSSYLTFGAGTKLDLK
notes: as for B1

What was measured:
full length human KLRG1 [1] = biological target: T1, full length human KLRG1; experiment: cell-based or functional assay
full length human KLRG1 [2] = biological target: T1, full length human KLRG1; experiment: FACS on CHO-human-KLRG1 cells
Procedure: (§1) Binding of anti-KLRG1 monoclonal antibodies to cell expressed human and cynomolgus-KLRG1 was carried out by FACS. Chinese hamster ovary (CHO) cells were stably transfected to express full length human KLRG1 (CHO-human-KLRG1) and cynomolgus KLRG1 (CHO-cynomolgus-KLRG1).

full length human KLRG1 [3] = biological target: T1, full length human KLRG1; experiment: E-cadherin binding inhibition study, FACS on CHO-hKLRG1 cells; labels of Table 12 stand one row too low, value agrees with ABC_G1N05 in Table 8
Procedure: (§2) The ability of monoclonal antibodies to inhibit E-cadherin/KLRG1 binding was measured by FACS. Binding of E-cadherin to CHO-hKLRG1 cells was first determined by incubating the KLRG1 expressing cells with varying concentration of HIS tagged recombinant E-cadherin and detected by FACS with anti-HIS detection antibody.
(§3) IC50 values for each antibody were derived from E-cadherin binding inhibition studies and plotted against IFNγ production levels measured in CD8+ T cells IFNγ release assays.

cynomolgus KLRG1 ECD = biological target: T2, cynomolgus KLRG1 ECD; experiment: hybridoma screen for binding to KLRG1 ECD
[4] = biological target: T3, full length cynomolgus KLRG1; experiment: FACS on CHO-cynomolgus-KLRG1 cells
Procedure: as §1

full length human KLRG1 [5] = biological target: T1, full length human KLRG1; experiment: FACS competition, loss of HIS tagged E-cadherin binding to CHO-hKLRG1 cells
Procedure: as §2

full length human KLRG1 [6] = biological target: T1, full length human KLRG1; experiment: cell-based or functional assay; remark: listed apart in the source
full length human KLRG1 [7] = biological target: T1, full length human KLRG1; experiment: E-cadherin binding inhibition study, FACS on CHO-hKLRG1 cells; labels of Table 12 stand one row too low, value agrees with ABC_G1N08 in Table 8
Procedure: as §2, §3

Binder	IFNγ released (pg/ml), Sample 1 (full length human KLRG1 [1])	IFNγ released (pg/ml), Sample 2 (full length human KLRG1 [1])	EC50 (full length human KLRG1 [2])	IC50 (full length human KLRG1 [3])	binding result (cynomolgus KLRG1 ECD)	EC50 [4]	IC50 (full length human KLRG1 [5])	IFNγ (full length human KLRG1 [6])	IC50 (full length human KLRG1 [7])
B1	1010 pg/mL	1080 pg/mL	39.8 nM	23 nM	binds	0.5 nM	23 nM	1050 pg/mL	–
B2	1010 pg/mL	1060 pg/mL	4.8 nM	–	binds	1.3 nM	10 nM	1040 pg/mL	10 nM
